Article PMC5514391 (EBioMedicine, 2017)
Substitutions are numbered along the chain they refer to. In names and notes the source's numbering stands.

Molecular target: the molecule itself
Test: SEC

B1: AdcR H42A/H108A (site 1 metal ligand mutant) (natural protein)
chain: MGTLEKKLDNLVNTILLKAENQHELLFGACQSDVKLTNTQEAILMLLSQQRLTNTDLAKALNISQAAVTKAIKSLVKQDMLAGTKDTVDARVTYFELTELAKPIASEATHHHDETLNVYNRLLQKFSAKELEIVDKFVTVFAEELEG
- stoichiometry N: 2

B2: AdcR C30A (site 2 metal ligand mutant) (natural protein)
chain: B1 chain with C30A, A42H, A108H
- stoichiometry N: 2
